The values below come from paper PMC6494084.

Read-outs that look alike come from different tables or passages of the source.

Assay in all cases: X-ray crystallography
The target of series [1] is T1, DNA polymerase beta (pol β), wild-type (human, UniProt P06746 1-335).
In series [2] the target is T1, DNA polymerase beta (pol β), wild-type. This is another data set of the same source.
Series [3] shares this target. The source holds these as a separate data set.

B1: 1-nt gapped DNA, templating G (dsDNA)
DNA 1: CCGACGGCGCATCAGC
DNA 2: GCTGATGCGC
DNA 3: GTCGC
modifications: 5'-phosphate on downstream strand
Take B1: the binding result in series [1] is on record as “binds”.

B2: 1-nt gapped DNA, templating C (dsDNA)
DNA 1: CCGACCGCGCATCAGC
DNA 2: GCTGATGCGC
DNA 3: GTCGC
modifications: 5'-phosphate on downstream strand
Turning to B2, the binding result in series [2] is “binds”.

B3: 1-nt gapped DNA, templating A (dsDNA)
DNA 1: CCGACAGCGCATCAGC
DNA 2: GCTGATGCGC
DNA 3: GTCGC
modifications: 5'-phosphate on downstream strand
B3: the binding result in series [3] is “binds”.
